Assay [1] addresses T1, biotinylated BSA (bovine, UniProt P02769 25-607, biotinylated).
T1 construct: Control protein in the direct TR-FRET assay, at 50 ug/mL; also called biotinylated control protein; bovine serum albumin
The assay can be described thus: direct TR-FRET, scFv coated. The protocol:
FIG. 4. Direct TR-FRET binding assays between scFvs and atheromatous tissue extracts. Direct TR-FRET principle is schematized at the top. The donor fluorophore europium cryptate (Eu)K conjugated to anti-c-myc mAb was able to recognize c-myc tag expressed by scFvs. The acceptor fluorophore XL665 conjugated to streptavidin bound biotinylated protein extract. When scFvs and target proteins bound, a FRET signal was recorded. […] Specific TR-FRET signal was measured as a percentage DeltaF (percent DeltaF). The time course of the detection of the complex formation was performed after 6 hours (▪), 16 hours ( ), 24 hours ( ) and 40 hours (□) of incubation at 4° C. Ten microliter of scFv were coated on the plate at concentrations between 3 and 10 μg/mL according to the clone. The signals were measured in the presence of 4 nmol/L of mAb-(Eu)K, 4 nmol/L of streptavidin-XL665, and 30 μg/mL of biotinylated atheromatous protein extract or 50 μg/mL of biotinylated BSA (data not shown). Histobar values represent the average of at least three independent experiments±SD performed from the same purified scFv production.
Binding assays between scFvs and atheromatous protein extracts were assessed by direct TR-FRET. Black Fluotrac 600 microplate (Greiner) was coated with 10 μL of scFv (final concentration comprised between 3 and 10 μg/mL according to the clone) in 0.1 mol/L NaHCO₃, pH 8.6 for 16 hours at 4° C. Subsequently, plates were blocked for 3 hours at 4° C. using 1% BSA (w/v) in PBS solution. Following washing in PBS, 30 μg/mL of biotinylated atheromatous protein extract in 1% BSA/PBS was incubated for 16 hours at 4° C. After washing in PBS, 50 μL of reaction buffer (100 mmol/L Phosphate buffer, pH 7; 400 mmol/L KF buffer; 0.1% BSA), 4 nmol/L of anti c-myc-(Eu)K (Cisbio Bioassays, Codolet, France) and 4 nmol/L of streptavidin-XL665 (Cisbio Bioassays) were incubated in a final volume of 100 μL. FRET signal emission was measured and monitored with an Infinite® F500 reader (Tecan, Lyon, France) on a 40-hour time course. The percent DeltaF values reported the intensity of the direct binding between scFvs and protein extract.
On the technique in general: TR-FRET usually uses a lanthanide donor and a delayed reading to cut background.

The target in assay [2] is human recombinant carbonic anhydrase II (human, UniProt P00918 1-260). The assay can be described thus: ELISA, CA-II coated at 10 µg/mL, scFv at 10 µg/mL. As for the experimental part: Ninety-six well ELISA microtiter plates (Greiner) were coated overnight, at 4° C., with 100 µL of human recombinant carbonic anhydrase II (Sigma-Aldrich, St louis, USA) at a final concentration of 10 μg/mL, or bovine serum albumin at 50 μg/mL in carbonate buffer (NaHCO3/Na2CO3, 50 mmol/L, pH 9.6). All further reactions were carried out at room temperature. Following three washing steps with PBS-Tween 20 (0.5% Tween 20), 100 μL of purified K3.1 scFv at 10 μg/mL were added to each well. After a 2-h incubation and five washing steps, bound scFv was labeled with a mix of HRP-conjugated anti c-myc (diluted 1/1000, Miltenyi Biotech) and anti 6His (diluted 1/500, Roche Diagnostics) mAbs. After 1-h incubation and washing steps, color was developed with 100 μL of 3,3′,5,5′-Tetramethylbenzidine (TMB) liquid substrate system for ELISA (Sigma) and the absorbance was read at 450 nm with an Infinite® F500 reader (Tecan, Lyon, France).
A general note: An ELISA detects its analyte on a solid surface through an enzyme-linked reagent.

For assay [3], the target named is T2, rabbit cytosolic carbonic anhydrase isoenzyme II (CA-II) (rabbit, UniProt P00919 2-260).
T2 construct: Pulled down from the lysate of rabbit atherosclerotic aorta; also called CA-II protein; protein with an apparent molecular mass of ~29 kDa
Description: immunoprecipitation from rabbit atherosclerotic lysate on nickel beads, SDS-PAGE, LC-MS/MS. As for the experimental part:
Nickel-coated superparamagnetic beads (Ademtech, Pessac, France) were pre-washed three times with 500 μL of Binding Buffer (BB) (20 mmol/L Tris, pH 7; 500 mmol/L NaCl) and then incubated for 1 hour with 1 mg of rabbit atheromatous proteins solubilized in low stringent lysis buffer in order to get rid of nonspecific binding proteins. The supernatant free of nonspecific binding proteins was recovered and incubated with 10 μg of purified K3.1 scFv or of an irrelevant scFv for 16 hours at 4° C. under rotation. The next day, 20 μL of clean pre-washed superparamagnetic beads were added and incubated for a further 1 hour at 20° C. After three washings with 500 μL of BB, the immunoprecipitated complexes were eluted with 2×30 μL of elution buffer (20 mmol/L Tris-HCl, pH 7.5; 500 mmol/L NaCl; 100 mmol/L imidazole). The protein complexes were then separated using 10% SDS-PAGE under reducing conditions. The band was excised and submitted to trypsin digestion, followed by liquid chromatrography-tandem mass spectrometry analysis (LC-MS/MS).
To identify the molecule recognized by purified K3.1 scFv, immunoprecipitation experiments using nickel superparamagnetic beads were performed to retain 6H is-tagged scFvs complexed to antigens contained in the rabbit atherosclerotic protein lysate. […]

T1 sequence (P02769 25-607 limits assumed): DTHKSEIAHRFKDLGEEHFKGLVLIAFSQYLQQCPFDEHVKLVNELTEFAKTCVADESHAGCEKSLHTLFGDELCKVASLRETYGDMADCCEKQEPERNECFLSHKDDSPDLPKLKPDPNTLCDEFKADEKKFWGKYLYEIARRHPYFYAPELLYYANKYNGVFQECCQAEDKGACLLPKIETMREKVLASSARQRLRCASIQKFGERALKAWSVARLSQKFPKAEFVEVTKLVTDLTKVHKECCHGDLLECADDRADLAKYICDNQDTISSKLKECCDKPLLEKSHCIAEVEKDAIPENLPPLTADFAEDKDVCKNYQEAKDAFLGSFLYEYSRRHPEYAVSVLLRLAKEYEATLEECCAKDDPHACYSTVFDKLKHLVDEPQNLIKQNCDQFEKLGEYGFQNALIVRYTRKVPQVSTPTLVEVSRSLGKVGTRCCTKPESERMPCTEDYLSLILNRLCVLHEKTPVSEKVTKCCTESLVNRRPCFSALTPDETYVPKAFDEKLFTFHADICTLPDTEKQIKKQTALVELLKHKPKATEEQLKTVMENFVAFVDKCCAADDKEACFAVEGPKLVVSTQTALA

B1: C3.3 scFv antibody (scFv)
scFv: EVQLVESGGSLVKPGGSLRLSCAASGFTFSNYSMNWVRQAPGKGLEWISSISGSSRYIYYADFVKGRFTISRDNATNSLYLQMNSLRAEDTAVYYCVRGIDGGGGWNYFDHWGRGTLVTVSSGGGGSGGGGSGGGGSQSVLTQPASVSGSPGQSITISCAGTSSDVGGYNYVSWYQQHPGKAPKLMIYEDSKRPSGVSNRFSGSKSGNTASLTISGLQAEDEADYYCRQPSNSPPLNFGGGTKLAV
notes: Soluble scFv with c-myc and 6His tags
Consider B1, for which, in assay [1], the binding result is on record as “no binding (tested: 50 µg/mL of biotinylated BSA)”.

B2: K3.1 scFv antibody (scFv)
scFv: EVQLVESGGSLVKPGGSLRLSCAASGFTFSNYSMNWVRQAPGKGLEWISSISGSSRYIYYADFVKGRFTISRDNATNSLYLQMNSLRAEDTAVYYCVRGEGLYSGSYNLHYWGRGTLVTVSSGGGGSGGGGSGGGGSQSVLTQPASVSGSPGQSITISCAGTSSDVGGYNYVSWYQQHPGKAPKLMIYEDSKRPSGVSNRFSGSKSGNTASLTISGLQAEDEADYFCGTPNTHALWVFGGGTKLAV
notes: Human scFv from a semi-synthetic library (13R4 framework), made soluble in E. coli HB2151 and purified on nickel; It carried c-myc and 6His tags in the assays
As for B2, the values for the binding result in assay [1], in assay [2] and in assay [3] were “no binding (tested: 50 µg/mL of biotinylated BSA)”, “binds” and “binds”, respectively.

B3: H2.1 scFv antibody (scFv)
scFv: EVQLVESGGSLVKPGGSLRLSCAASGFTFSNYSMNWVRQAPGKGLEWISSISGSSRYIYYADFVKGRFTISRDNATNSLYLQMNSLRAEDTAVYYCVRGGVDSSGDNCFDLWGRGTLVTVSSGGGGSGGGGSGGGGSQSVLTQPASVSGSPGQSITISCAGTSSDVGGYNYVSWYQQHPGKAPKLMIYEDSKRPSGVSNRFSGSKSGNTASLTISGLQAEDEADYYCTSYGSGATLVFGGGTKLAV
notes: as for B1
B3: the binding result in assay [1] is “no binding (tested: 50 µg/mL of biotinylated BSA)”.

B4: I8.1 scFv antibody (scFv)
scFv: EVQLVESGGSLVKPGGSLRLSCAASGFTFSNYSMNWVRQAPGKGLEWISSISGSSRYIYYADFVKGRFTISRDNATNSLYLQMNSLRAEDTAVYYCVRNSFYASWSKDYSMEIWGRGTLVTVSSGGGGSGGGGSGGGGSQSVLTQPASVSGSPGQSITISCAGTSSDVGGYNYVSWYQQHPGKAPKLMIYEDSKRPSGVSNRFSGSKSGNTASLTISGLQAEDEADYYCQSWASRINIFGGGTKLAV
notes: as for B1
On to B4, for which, in assay [1], the binding result is listed as “no binding (tested: 50 µg/mL of biotinylated BSA)”.

Values taken from patent US20140328753A1 (UNIVERSITE BORDEAUX SEGALEN, published 2014).
